# Source: patent US20260265697A1, “COMPOSITIONS AND METHODS OF PREPARING AIRWAY CELLS” (Yale University, priority 2014, published 2026)
# How the values were obtained:
# [1] = test system: iPS cell-derived DE cells; assay: Lung endoderm specification of DE cells, NKX2.1+ and NKX2.1+FOXA2+ cells; type: cell-based, human; conditions: FIG. 3B
# Method: (§1) Subsequently, the DE cells were trypsinized and replated on human ECM protein coated plates and were differentiated to anterior foregut endoderm (AFE) by exposing them sequentially between days d5 to d7 to combinations of the small molecule inhibitors in IMDM with 10% FBS, 2 mM L-glutamine, 1 mM nonessential amino acids, 1% antibiotic-antimycotic.
# Then AFE cells were maintained in lung endoderm differentiation medium consisting of IMDM with 20% FBS, 2 mM L-glutamine, 1 mM nonessential amino acids, 1% antibiotic-antimycotic, retinoic acid (0.5 μM), bFGF (10 ng/ml), BMP4 (10 ng/ml), Wnt3a (100 ng/ml), and KGF (10 ng/ml each) for 5 days. […]
# For flow cytometry, cells were fixed with the fixation solution from the Fixation/Permeabilization kit (BD Biosciences), and stained with primary and detection antibodies as described by the manufacturer. […] The cells were resuspended in 350 μl of Perm/Wash buffer after incubation with corresponding conjugated secondary for 30 min on ice, washed twice, and analyzed by flow cytometry.
# NKX2.1^+is the earliest marker of cells that distinguish future lung from other derivatives of the foregut endoderm. […] The percentages of NKX2.1^+ cells were quantified as percentages of the total cells present. […]
# [2] = test system: human iPS cells; assay: Differentiation of human iPS cells to definitive endoderm (DE), flow cytometry at day 5; type: cell-based
# Method: iPS cells were first differentiated towards definitive endoderm (DE). DE cells were initiated under conditions described previously. Briefly, iPS cells were cultured in RPMI 1640 medium supplemented with 100 ng/ml activin A, 2 mM L-glutamine and 1% antibiotic-antimycotic for 48 hours. Then, 1×B27 supplement and 0.5 mM sodium butyrate were added into the same medium and iPS cells were cultured in this medium for 3 days with daily medium changes.
# (§2) For flow cytometry, cells were fixed with the fixation solution from the Fixation/Permeabilization kit (BD Biosciences), and stained with primary and detection antibodies as described by the manufacturer. Briefly cells were dissociated into single-cell suspensions by incubation with 0.25% trypsin for 2 min. The dissociated cells were resuspended (0.5×10^6 cells) in 250 μl of fixation/permeabilization solution, kept on ice for 20 min, and washed twice with Perm/Wash buffer. After blocking with blocking solution for 30 min on ice, the cells were incubated with corresponding primary antibody in the blocking solution for 30 min on ice. The cells were resuspended in 350 μl of Perm/Wash buffer after incubation with corresponding conjugated secondary for 30 min on ice, washed twice, and analyzed by flow cytometry.
# Human iPS cells were differentiated to DE cells using serum free conditions (FIG. 1). By exposing iPS cells to saturating concentrations of activin A, greater than 85% endodermal cells were generated. […] 89% of cells were positive for c-kit (FIG. 2A), 91% positive for SOX17 (FIG. 2C), 93% positive for FOXA2 (FIG. 2B), and 88% of the cells expressed the endoderm surface marker CXCR4 (FIG. 2D) in clone C1.
# [3] = test system: iPS cell-derived DE cells; assay: Anterior foregut endoderm (AFE) differentiation of DE cells, FOXA2+SOX2+ cells by flow cytometry; type: cell-based, human; conditions: day 7, flow cytometry, FIG. 3A
# Method: as §1
# as §2, with “After blocking with blocking solution for 30 min on ice, the cells were incubated with corresponding primary antibody in the blocking solution for 30 min on ice.” left out, “cytometry. […]” for “cytometry.”
# BMP4 signaling is required for lung specification and an increase in bFGF and WNT concentration increases NKX2.1^+immature lung progenitors. […] The numbers of cells double positive for FOXA2^+SOX2^+anterior endoderm cells were quantified out of the total FOXA2^+endoderm cells by flow cytometry.
# [4] = day 5, flow cytometry, clone C1
molecule,measurement,setting,value
"activin A (protein, UniProt P08476 311-426, looked up, Inhibin beta A chain, agent that induces differentiation of iPS cells to definitive endoderm cells) Inhibin beta A chain: GLECDGKVNICCKKQFFVSFKDIGWNDWIIAPSGYHANYCEGECPSHIAGTSGSSLSFHSTVINHYRMRGHSPFANLKSCCVPTKLRPMSMLYYDDGQNIIKKDIQNMIVEECGCS",number of NKX2.1+ cells (percentage of total cells),[1],few
same,cells expressing endoderm surface marker CXCR4,[2]; [4],88%
same,cells positive for FOXA2,[2]; [4],93%
same,cells positive for SOX17,[2]; [4],91%
same,cells positive for c-kit,[2]; [4],89%
same,endodermal cells generated,"[2]; saturating concentrations of activin A, serum free conditions",greater than 85%
same,number of FOXA2+SOX2+ anterior endoderm cells out of total FOXA2+ endoderm cells,[3],rare
